Assay results published in US20220177587A1, “METHODS AND USES OF VARIANT CD80 FUSION PROTEINS AND RELATED CONSTRUCTS” (Alpine Immune Sciences, Inc., priority 2018, published 2022).
Where two headings read alike, the source gives them in different places.

What was measured:
CD28 (human) [1] = molecular target: CD28 (human) (UniProt P10747)
PD-L1 (human) [2] = molecular target: PD-L1 (human) (UniProt Q9NZQ7)
Target sequence in this assay (Q9NZQ7 19-290): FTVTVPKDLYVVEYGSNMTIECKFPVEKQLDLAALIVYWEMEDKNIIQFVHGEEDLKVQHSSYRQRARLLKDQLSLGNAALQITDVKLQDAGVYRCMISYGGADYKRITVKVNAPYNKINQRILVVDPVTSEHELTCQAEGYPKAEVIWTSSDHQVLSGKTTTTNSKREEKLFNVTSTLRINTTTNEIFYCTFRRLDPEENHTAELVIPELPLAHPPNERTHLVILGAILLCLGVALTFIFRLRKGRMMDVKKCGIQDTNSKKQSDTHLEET

CD28 (human) [3] = molecular target: CD28 (human) (UniProt P10747); test: flow cytometry, Jurkat cells (CD28)
human CTLA-4 (human) = human CTLA-4 (human) (UniProt P16410); test: flow cytometry, CHO cells stably expressing CTLA4
human CTLA-4 (human), sequence (P16410 36-223): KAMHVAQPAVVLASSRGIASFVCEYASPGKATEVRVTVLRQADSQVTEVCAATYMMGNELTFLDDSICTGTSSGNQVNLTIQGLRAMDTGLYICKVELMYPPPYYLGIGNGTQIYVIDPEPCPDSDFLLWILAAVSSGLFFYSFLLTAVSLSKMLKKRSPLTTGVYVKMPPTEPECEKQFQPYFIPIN

PD-L1 (human) [4] = molecular target: PD-L1 (human) (UniProt Q9NZQ7); test: flow cytometry, CHO cells stably expressing PD-L1
PD-L1 (human) [5] = molecular target: PD-L1 (human) (UniProt Q9NZQ7); test: flow cytometry, CHO cells expressing PD-L1
Target sequence in this assay (Q9NZQ7 19-290): as the sequence (Q9NZQ7 19-290) above

CD28 (human) [6] = molecular target: CD28 (human) (UniProt P10747); test: flow cytometry, Jurkat cells (CD28); remark: listed apart in the source

Substance | Jurkat/IL2 reporter RLU at 50 nM, K562/OKT3/PD-L1 aAPC (CD28 (human) [1]) | Jurkat/IL2 reporter RLU at 50 nM, K562/OKT3/PD-L1 aAPC (PD-L1 (human) [2]) | MFI at 33.3 nM (CD28 (human) [3]) | MFI at 33.3 nM (human CTLA-4 (human)) | MFI at 33.3 nM (PD-L1 (human) [4]) | other results
CD80 A26E/E35D/M43I/M47L/L85Q/K86E/R94W IgV-Fc (inert) (Fc fusion) | 498 RLU | 498 RLU | – | – | – | –
CD80 E24D/Q33L/E35D/M47V/K54R/L85Q IgV-Fc (inert) (Fc fusion) | 3240 RLU | 3240 RLU | – | – | – | –
variant CD80 IgV-Fc H18Y/E35D/V68M/A71G/D90G (Fc fusion) | – | – | 2720 MFI | 24300 MFI | 30100 MFI | –
variant CD80 IgV-Fc H18Y/A26E/M47L/V68M/A71G/D90G (Fc fusion) | – | – | 2560 MFI | 121 MFI | 31700 MFI | Fold change to WT CD80 (CD28 (human) [3]): 58.2 fold; Fold change to WT CD80 (PD-L1 (human) [4]): 727 fold
CD80 E35D/M47I/V68M/Y87N IgV-Fc (Fc fusion) | – | – | – | – | – | MFI at 33.3 nM (PD-L1 (human) [5]): 13100 MFI
variant CD80 IgV-Fc A26E/E35D/V68M/A71G (Fc fusion) | – | – | 135 MFI | – | 12600 MFI | –
variant CD80 IgV-Fc H18Y/E35D/M47L/A71G/D90G (Fc fusion) | – | – | 1270 MFI | 23000 MFI | 13300 MFI | Fold change to WT CD80 (human CTLA-4 (human)): 16.9 fold; Fold change to WT CD80 (PD-L1 (human) [4]): 306 fold
CD80 H18Y/A26E/Q33L/E35D/M47L/L85Q IgV-Fc (inert) (Fc fusion) | 408 RLU | 408 RLU | – | – | – | –
CD80 E35D/M47V/A71G/L85M/L97Q IgV-Fc (inert) (Fc fusion) | 576 RLU | 576 RLU | – | – | – | –
CD80 A26E/Q33R/E35D/M47L/L85Q/K86E IgV-Fc (inert) (Fc fusion) | 569 RLU | 569 RLU | – | – | – | –
CD80 V22A/E23D/Q33L/E35D/M47V IgV-Fc (inert) (Fc fusion) | 390 RLU | 390 RLU | – | – | – | –
variant CD80 IgV-Fc H18Y/A26E/E35D/M47L/A71G/D90G (Fc fusion) | – | – | – | – | 16900 MFI | –
variant CD80 IgV-Fc A26E/M47L/V68M/D90G (Fc fusion) | – | – | 2580 MFI | 21900 MFI | 10600 MFI | –
CD80 E35D/D46E/M47V/L97Q IgV-Fc (inert) (Fc fusion) | 1090 RLU | 1090 RLU | – | – | – | –
CD80 V22D/E24D/E35D/M47L/V68M/L85M/D90G IgV-Fc (Fc fusion) | – | – | – | – | – | MFI at 33.3 nM (CD28 (human) [6]): 1180 MFI; MFI at 33.3 nM (PD-L1 (human) [5]): 19000 MFI
variant CD80 IgV-Fc A26E/M47L/V68M/A71G (Fc fusion) | – | – | 98.7 MFI | 3230 MFI | 1670 MFI | –
CD80 IgV-Fc A26E/Q27R/E35D/M47L/N48Y/L85Q (Fc fusion) | – | – | – | – | – | MFI at 33.3 nM (CD28 (human) [6]): 78 MFI
CD80 Q33K/E35D/M47V/K89E/K93R IgV-Fc (inert) (Fc fusion) | 415 RLU | 415 RLU | – | – | – | –
CD80 Q33L/E35D/M47V/L85Q IgV-Fc (inert) (Fc fusion) | 556 RLU | 556 RLU | – | – | – | –
CD80 Q27H/E35D/M47L/L85Q/R94Q/E95K IgV-Fc (inert) (Fc fusion) | 513 RLU | 513 RLU | – | – | – | –

Substance | Jurkat/IL2 reporter RLU at 50 nM, K562/OKT3/PD-L1 aAPC (CD28 (human) [1]) | Jurkat/IL2 reporter RLU at 50 nM, K562/OKT3/PD-L1 aAPC (PD-L1 (human) [2]) | MFI at 33.3 nM (CD28 (human) [3]) | MFI at 33.3 nM (human CTLA-4 (human)) | MFI at 33.3 nM (PD-L1 (human) [4]) | other results
CD80 H18Y/V20A/Q33L/E35D/M47V/Y53F IgV-Fc (inert) (Fc fusion) | 566 RLU | 566 RLU | – | – | – | –
CD80 Q33L/E35D/M43V/M47I/A71G IgV-Fc (inert) (Fc fusion) | 473 RLU | 473 RLU | – | – | – | –
CD80 Q33L/E35D/T41S/M43I IgV-Fc (inert) (Fc fusion) | 533 RLU | 533 RLU | – | – | – | –
variant CD80 IgV-Fc H18Y/M47L/V68M/A71G/D90G (Fc fusion) | – | – | – | 22200 MFI | 29500 MFI | –
CD80 T13R/E35D/M47L/V68M IgV-Fc (Fc fusion) | – | – | – | – | – | MFI at 33.3 nM (CD28 (human) [6]): 15.6 MFI; MFI at 33.3 nM (PD-L1 (human) [5]): 20000 MFI
CD80 E7D/E35D/M47I/L97Q IgV-Fc (inert) (Fc fusion) | 1240 RLU | 1240 RLU | – | – | – | –
CD80 H18Y/Y31H/E35D/M47V/A71G/L85Q IgV-Fc (inert) (Fc fusion) | 455 RLU | 455 RLU | – | – | – | –
CD80 A26E/E35D/M43T/M47L/L85Q/R94Q IgV-Fc (inert) (Fc fusion) | 526 RLU | 526 RLU | – | – | – | –
CD80 Q27H/Q33L/E35D/M47V/N55D/L85Q/K89N IgV-Fc (inert) (Fc fusion) | 551 RLU | 551 RLU | – | – | – | –
CD80 Q33L/E35D/N48K/L85Q/L97Q IgV-Fc (inert) (Fc fusion) | 358 RLU | 358 RLU | – | – | – | –
CD80 E35D/M47V/T62A/A71G/V83A/Y87H/L97M IgV-Fc (inert) (Fc fusion) | 438 RLU | 438 RLU | – | – | – | –
CD80 Q33L/E35D/T41S/M47V IgV-Fc (inert) (Fc fusion) | 481 RLU | 481 RLU | – | – | – | –
CD80 Q33L/E35D/D46E/M47I IgV-Fc (inert) (Fc fusion) | 554 RLU | 554 RLU | – | – | – | –
CD80 Q33L/E35D/M43I/L85Q/R94W IgV-Fc (inert) (Fc fusion) | 553 RLU | 553 RLU | – | – | – | –
CD80 A26E/Q33R/E35D/M47L/L85Q IgV-Fc (inert) (Fc fusion) | 500 RLU | 500 RLU | – | – | – | –
CD80 E35D/M47I/K54R/L85E IgV-Fc (inert) (Fc fusion) | 602 RLU | 602 RLU | – | – | – | –
CD80 E35D/D46E/M47L/V68M/T79M/L85M IgV-Fc (Fc fusion) | – | – | – | – | – | MFI at 33.3 nM (CD28 (human) [6]): 403 MFI; MFI at 33.3 nM (PD-L1 (human) [5]): 8640 MFI
CD80 Q33R/E35D/K37E/M47V/L85Q IgV-Fc (inert) (Fc fusion) | 464 RLU | 464 RLU | – | – | – | –
variant CD80 IgV-Fc H18Y/A26E/A71G/D90G (Fc fusion) | – | – | 2000 MFI | 19900 MFI | – | –
variant CD80 IgV-Fc A26E/E35D/M47L/V68M/D90G (Fc fusion) | – | – | – | 26700 MFI | 25000 MFI | –

Substance | Jurkat/IL2 reporter RLU at 50 nM, K562/OKT3/PD-L1 aAPC (CD28 (human) [1]) | Jurkat/IL2 reporter RLU at 50 nM, K562/OKT3/PD-L1 aAPC (PD-L1 (human) [2]) | MFI at 33.3 nM (CD28 (human) [3]) | MFI at 33.3 nM (human CTLA-4 (human)) | MFI at 33.3 nM (PD-L1 (human) [4]) | other results
variant CD80 IgV-Fc E35D/M47L/V68M/A71G (Fc fusion) | – | – | 806 MFI | 24700 MFI | 27900 MFI | Fold change to WT CD80 (human CTLA-4 (human)): 18.1 fold; Fold change to WT CD80 (PD-L1 (human) [4]): 639 fold
variant CD80 IgV-Fc H18Y/A26E/E35D/M47L/V68M/A71G (Fc fusion) | – | – | 526 MFI | 25400 MFI | 28500 MFI | Fold change to WT CD80 (human CTLA-4 (human)): 18.7 fold; Fold change to WT CD80 (PD-L1 (human) [4]): 655 fold
variant CD80 IgV-Fc H18Y/M47L/A71G/D90G (Fc fusion) | – | – | 1600 MFI | 18200 MFI | 10800 MFI | –
CD80 Q33R/E35D/D46E/M47I IgV-Fc (inert) (Fc fusion) | 522 RLU | 522 RLU | – | – | – | –
CD80 Q33L/E35D/M47I/L85Q IgV-Fc (inert) (Fc fusion) | 432 RLU | 432 RLU | – | – | – | –
variant CD80 IgV-Fc A26E/M47L/V68M/A71G/D90G (Fc fusion) | – | – | 2790 MFI | 21800 MFI | 28100 MFI | –
CD80 E35D/M47I/E77A/L85Q/R94W IgV-Fc (inert) (Fc fusion) | 473 RLU | 473 RLU | – | – | – | –
variant CD80 IgV-Fc H18Y/M47L/V68M/A71G (Fc fusion) | – | – | 1190 MFI | – | 28500 MFI | –
variant CD80 IgV-Fc E35D/M47L/V68M/A71G/D90G (Fc fusion) | – | – | 3070 MFI | 26000 MFI | 29400 MFI | –
CD80 E35D/M47L/A71G/L97Q IgV-Fc (inert) (Fc fusion) | 2160 RLU | 2160 RLU | – | – | – | –
variant CD80 IgV-Fc H18Y/E35D/M47L/A71G (Fc fusion) | – | – | – | 22400 MFI | 11900 MFI | –
CD80 E35D/D46E/M47L/V68M/A71G/Y87C/K93R IgV-Fc (Fc fusion) | – | – | – | – | – | MFI at 33.3 nM (PD-L1 (human) [5]): 24300 MFI
CD80 V22D/E24D/E35D/M47L/V68M IgV-Fc (Fc fusion) | – | – | – | – | – | MFI at 33.3 nM (CD28 (human) [6]): 1250 MFI; MFI at 33.3 nM (PD-L1 (human) [5]): 15400 MFI
variant CD80 IgV-Fc H18Y/A26E/E35D/D90G (Fc fusion) | – | – | – | – | 10000 MFI | –
variant CD80 IgV-Fc H18Y/A26E/E35D/V68M (Fc fusion) | – | – | 372 MFI | 20900 MFI | 17900 MFI | –
CD80 ECD-Fc (Fc fusion) | – | – | 42.3 MFI | – | 6380 MFI | –
variant CD80 IgV-Fc H18Y/E35D/M47L/V68M/D90G (Fc fusion) | – | – | 3390 MFI | – | 27400 MFI | –
variant CD80 IgV-Fc A26E/E35D/M47L/A71G/D90G (Fc fusion) | – | – | 1270 MFI | 22100 MFI | 14600 MFI | –
variant CD80 IgV-Fc A26E/E35D/M47L/V68M/A71G (Fc fusion) | – | – | 417 MFI | 24600 MFI | 27800 MFI | Fold change to WT CD80 (human CTLA-4 (human)): 18.1 fold; Fold change to WT CD80 (PD-L1 (human) [4]): 638 fold
variant CD80 IgV-Fc E35D/V68M/A71G/D90G (Fc fusion) | – | – | 2840 MFI | 23300 MFI | 28000 MFI | –
